This note sets out measurements from patent US20200079844A1.

Like-named read-outs stand apart in the source and are kept apart here.

In test [1] the target is human TNFα (human) (UniProt P01375). Kind of test: cell-based or functional assay.
For test [2], the target named is rhesus TNFα (rhesus) (UniProt P48094).
For test [3] the target is unchanged. Kind of test: cell-based or functional assay.
Test [4] has the same target. This is another data set of the same source.
The target of test [5] is human TNFα (human) (UniProt P01375). The test is described as follows: cell-based or functional assay. This is another data set of the same source.

One may read the EC50 (read off the curve) as the concentration that produces a half-maximal response.

Sequence of human TNFα (human) (P01375 77-233 limits assumed): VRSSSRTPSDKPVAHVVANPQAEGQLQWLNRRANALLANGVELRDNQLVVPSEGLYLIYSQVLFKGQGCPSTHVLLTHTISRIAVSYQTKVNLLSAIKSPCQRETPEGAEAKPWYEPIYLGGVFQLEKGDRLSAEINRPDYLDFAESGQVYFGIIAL
Sequence of rhesus TNFα (rhesus) (P48094 77-233 limits assumed): as the sequence (P01375 77-233 limits assumed) above, with R44T, T72N, R138L counted along it

Consider ALX0071, for which, in the test with human TNFα (human) [1], the IC50 in pM; TNFα-induced IL-6 production by RA synovial fibroblasts, donor DS534 P4 came out at 132 pM; the IC50 in pM; TNFα-induced IL-6 production by RA synovial fibroblasts, donor DS592 P4 stood at 363 pM; the IC50 in pM; TNFα-induced IL-6 production by RA synovial fibroblasts, donor DS605 P3 was determined as 427 pM; the IC50 in pM; TNFα-induced IL-6 production by RA synovial fibroblasts, donor KM05-179 P4 is 537 pM. In the test with human TNFα (human) [1], this substance returned a p[IC]50; TNFα-induced IL-6 production by RA synovial fibroblasts, donor DS534 P4 of 9.88; a p[IC]50; TNFα-induced IL-6 production by RA synovial fibroblasts, donor DS592 P4 of 9.44; a p[IC]50; TNFα-induced IL-6 production by RA synovial fibroblasts, donor DS605 P3 of 9.37; a p[IC]50; TNFα-induced IL-6 production by RA synovial fibroblasts, donor KM05-179 P4 of 9.27.

As to Enbrel (Etanercept) (Fc fusion), the 50% effective concentration (EC50 (read off the curve)) in the test with rhesus TNFα (rhesus) [2] was determined as 0.01 nM. Moreover, in the test with human TNFα (human) [1], the EC50 in nM (mean); L929s + Act D cytotoxicity assay, human TNFa @ 0.5 ng/ml came out at 0.009 nM; the EC50 in nM (mean); L929s + Act D cytotoxicity assay, human TNFα @ 0.5 ng/ml came out at 0.009 nM; the EC50 in nM; alphaKYM cell assay (10000 c/w), human TNFa @ 1 ng/ml was found to be 0.04 nM; the IC50 in pM; TNFα-induced IL-6 production by RA synovial fibroblasts, donor DS534 P4 is 282 pM. In the test with human TNFα (human) [1], this substance displayed an IC50 in pM; TNFα-induced IL-6 production by RA synovial fibroblasts, donor DS592 P4 of 324 pM; an IC50 in pM; TNFα-induced IL-6 production by RA synovial fibroblasts, donor DS605 P3 of 309 pM; an IC50 in pM; TNFα-induced IL-6 production by RA synovial fibroblasts, donor KM05-179 P4 of 309 pM; a p[IC]50; TNFα-induced IL-6 production by RA synovial fibroblasts, donor DS534 P4 of 9.55. In the test with human TNFα (human) [1], this substance registered a p[IC]50; TNFα-induced IL-6 production by RA synovial fibroblasts, donor DS592 P4 of 9.49; a p[IC]50; TNFα-induced IL-6 production by RA synovial fibroblasts, donor DS605 P3 of 9.51; a p[IC]50; TNFα-induced IL-6 production by RA synovial fibroblasts, donor KM05-179 P4 of 9.51. In the test with rhesus TNFα (rhesus) [3], the EC50 in nM (mean); L929s + Act D cytotoxicity assay, rhesus TNFa @ 0.5 ng/ml was determined as 0.009 nM and the EC50 in nM (mean); L929s + Act D cytotoxicity assay, rhesus TNFα @ 0.5 ng/ml was 0.009 nM.

Take Humira (Adalimumab) (antibody): in the test with rhesus TNFα (rhesus) [4], the concentration for a half-maximal effect (EC50 (read off the curve)) came out at 0.1 nM. The 50% effective concentration (EC50 (read off the curve)) with rhesus TNFα (rhesus) [2] was 0.09 nM. In the test with human TNFα (human) [1], this substance registered an EC50 in nM (mean); cytotoxicity assay, human TNFα of 0.141 nM and an EC50 in nM; alphaKYM cell assay (10000 c/w), human TNFa @ 1 ng/ml of 0.103 nM. In the test with rhesus TNFα (rhesus) [3], the EC50 in nM (mean); L929s + Act D cytotoxicity assay, rhesus TNFa @ 0.5 ng/ml amounted to 0.071 nM and the EC50 in nM (mean); L929s + Act D cytotoxicity assay, rhesus TNFα @ 0.5 ng/ml turned out to be 0.071 nM. In the test with human TNFα (human) [5], this substance displayed an EC50 in nM (mean); cytotoxicity assay, human TNFα of 0.127 nM.

As for Remicade (Infliximab) (antibody), in the test with rhesus TNFα (rhesus) [3], the EC50 in nM (mean); L929s + Act D cytotoxicity assay, rhesus TNFa @ 0.5 ng/ml was above 6.7 nM and the EC50 in nM (mean); L929s + Act D cytotoxicity assay, rhesus TNFα @ 0.5 ng/ml was above 6.7 nM.
